# Assay results: patent publication US9616101B2, “Differentiation marker and differentiation control of eye cell” (Kyoto Prefectural Public University Corporation, priority 2012, dated 2017)
# B1: R-spondin 1: Recombinant Human R-spondin 1 (R&D Cat. 4645-RS); ligand of GPR49/LGR5 (protein, listed as Homo sapiens)
# chain: MRLGLCVVALVLSWTHLTISSRGIKGKRQRRISAEGSQACAKGCELCSEVNGCLKCSPKLFILLERNDIRQVGVCLPSCPPGYFDARNPDMNKCIKCKIEHCEACFSHNFCTKCKEGLYLHKGRCYPACPEGSSAANGTMECSSPAQCEMSEWSPWGPCSKKQQLCGFRRGSEERTRRVLHAPVGDHAACSDTKETRRCTVRRVPCPEGQKRRKGGQGRRENANRNLARKESKEAGAGSRRRKGQQQQQQQGTVGPLTSAGPA
# Tests used:
# [1] = system: human corneal endothelial cell; test: Ki67 immunostaining of human corneal endothelial cells incubated with RSPO1 to 4; type: cell-based
# From the text: A corneal tissue was embedded with OCT compound (catalog No.: 4583; Sakura Finetek, Tokyo, Japan), and frozen in liquid nitrogen to prepare a frozen corneal tissue section. The frozen block was sliced to 8 μm, applied on a silane-coating slide, and air-dried. For preparing the whole tissue section, a Descemet's membrane containing a corneal endothelial cell was peeled from a corneal tissue, allowed to stand in ice-cooled 100% acetone for 30 seconds, applied on a silane-coating slide, and air-dried. As a cultured corneal endothelial cell, a cell cultured on a LabTek 8-well plastic chamber slide was used. Ice-cooled 100% acetone was added to a corneal tissue and the cultured cell, the resultant was allowed to stand at 4° C. for 15 minutes to fix the cell. After shaking and washing with 0.15% TritonX/PBS-, 1% bovine serum albumin (catalog No.: A4503BSA; Sigma-Aldrich, St. Louis, Mo.) was added, and allowed to stand at room temperature for 30 minutes to perform blocking. A primary antibody was diluted with 1% BSA, and incubated at room temperature for 1 hour. As a primary antibody to be used, anti-rabbit GPR49/LGR5 (catalog No.: GTX71143; 1: 200; GeneTex Inc., San Antonio, Tex.), anti-rabbit Nestin (catalog No.: PRB-570C; 1: 200; COVANCE, Berkeley, Calif.), anti-mouse ABCG2 (catalog No.: NC_236; 1: 2; Kamiya biomedical CO., Seattle, Wash. USA), anti-mouse Ki-67 (catalog No.: 556003; 1: 200 BD Pharmingen™ NJ, USA), anti-rabbit Na^+/K^+ ATPase (catalog No.: A132; 1: 100; Zymed), and anti-rabbit ZO1 (Zymed Laboratries Inc., South San Francisco, Calif.) were used. The resultant was washed with 0.15% Triton/PBS- twice, and PBS- once.
# A secondary antibody was diluted with a mixed solution of 1% BSA and 0.15% TrironX/PBS-, and incubated at room temperature for 30 minutes. As a secondary antibody to be used, Alexa™ Fluor 488-labeled (conjugated) goat anti-rabbit IgG (catalog No.: A11034; 1: 1500; Molecular Probe-Invitrogen) and Alexa™ Fluor 488-labeled (conjugated) goat anti-mouse IgG (catalog No.: A11029; 1: 1500; Molecular Probe-Invitrogen) were used. The secondary antibody was shaken and washed with 0.15% Triton/PBS- twice, and PBS- once, subjected to nuclear staining with propidium iodide (catalog No.: SP29004-41; PI; Nacalai Tesque, Inc. Kyoto, Japan), and embedded while covered with a cover glass.
# In order to investigate a relationship between R-sporadin 1 (RSPO1), R-spondin 2 (RSPO2), R-spondin 3 (RSPO3), or R-spondin 4 (RSPO4) and differentiation of a corneal endothelial cell, the relationship was studied using RSPO1. Reagents used are as follows. • RSPO1 R&D systems catalog No.: 4645-RS • RSPO2 R&D systems catalog No.: 3266-RS • RSPO3 R&D systems catalog No.: 3500-RS • RSPO4 R&D systems catalog No.: 4575-RS
# Then, for the purpose of investigating the influence of RSPO on cell proliferation, RSPO1 to 4 were incubated into a human corneal endothelial cell under conditions of 37° C. and 5% CO2 for 1 day. Thereafter, Ki-67 being a cell proliferation marker was immunostained.
# [2] = system: cultured human corneal endothelial cell; test: Culture of human corneal endothelial cells with or without RSPO: cell morphology and cell density; type: cell-based
# From the text: GPR49/LGR5 was an orphan receptor of a G protein-coupled receptor superfamily, and a ligand thereof was not known previously. […] In order to determine the function of RSPO on CEC differentiation, the present inventors cultured primate CEC with human recombinant RSPO, or without human recombinant RSPO. […] In order to determine the function of RSPO on CEC proliferation, the present inventors performed immunohistochemical research on Ki67. […] In view of these findings, the present inventors considered that among a RSPO family, particularly, RSPO1 can play an important role in maintenance of CEC.
# Finally, in order to further determine influence of RSPO1 on CEC, the present inventors maintained a secondary culture of human CEC in the presence or absence of RSPO1. […] The cell density of a RSPO1-treated cell increased as compared with that of a non-treated cell (FIG. 6B-E). In order to verify which pathway regulated this type of corneal endothelial MT, the present inventors investigated the expression level of a Wnt/β-catenin-associated molecule using Western blotting analysis. […] Further, the protein level of a cell transfected with NT and GPR49/LGR5 and treated with RSPO1 decreased as compared with that of a cell group not treated with RSPO1 (FIG. 6B-F).
# A cultured human corneal endothelial cell was cultured for 7 days under conditions of 37° C. and 5% CO2, with being divided into a group of addition of RSPO1 (50 ng/ml) and a group of addition of no RSPO1. […] From the above result, the effect of suppressing differentiation of a corneal endothelial cell was recognized in RSPO1.
molecule,measurement,setting,value
B1,level of the Ki67(+) cell ratio,"[1]; 50 ng/ml (FIG. 6C-C), as compared with other RSPOs",dramatically increased
same,Ki67 staining,[1]; R-spondin 1 1000 ng/ml (FIG. 11),staining is also observed
same,Ki67-positive cell rate as compared with a control,"[1]; RSPO1 50 ng/ml, 500 ng/ml (FIG. 11)",increased
same,proliferation of a human corneal endothelial cell (Ki-67 immunostain),"[1]; incubated 1 day, 37° C., 5% CO2",statistically significantly promoted proliferation
same,cell morphology / in vitro CEC differentiation (phase contrast),[2]; 50 ng/ml (FIG. 6C-B),compact and uniform hexagonal cell having a smaller size
same,cell form in secondary culture of human CEC,"[2]; RSPO1 50 ng/ml (FIG. 6B-E), without RSPO1 fibroblast-like phenotype",maintained its hexagonal form
same,morphology of a cell,"[2]; RSPO1 50 ng/ml, 7 days, non-addition group differentiated into fibroblast-like cells",maintained in a cobblestone manner
same,cell density as compared with a non-treated cell,"[2]; secondary culture of human CEC, RSPO1 50 ng/ml",increased
